Measurements from US20240301069A1 (GUANGDONG FAPON BIOPHARMA, published 2024).
Numbering of substitutions follows the chain as printed.

T1: human ICOSLG protein (Acrobiosystem), hICOSLGhFc (human, UniProt O75144 19-258, limits assumed)
T1 construct: Bought; also called B7-H2; not shown: human Fc
T1 sequence (looked up): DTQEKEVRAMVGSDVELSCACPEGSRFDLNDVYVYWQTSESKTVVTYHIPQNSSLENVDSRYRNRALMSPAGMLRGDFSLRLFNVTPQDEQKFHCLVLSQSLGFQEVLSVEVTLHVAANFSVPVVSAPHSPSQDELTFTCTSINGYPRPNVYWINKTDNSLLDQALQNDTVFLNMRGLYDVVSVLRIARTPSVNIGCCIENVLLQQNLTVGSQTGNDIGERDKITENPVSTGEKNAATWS

T2: human PD-L2 protein (Acrobiosystem), hPD-L2 hFc (human, UniProt Q9BQ51 20-219, limits assumed)
T2 construct: Bought; also called B7-DC; not shown: human Fc
T2 sequence (looked up): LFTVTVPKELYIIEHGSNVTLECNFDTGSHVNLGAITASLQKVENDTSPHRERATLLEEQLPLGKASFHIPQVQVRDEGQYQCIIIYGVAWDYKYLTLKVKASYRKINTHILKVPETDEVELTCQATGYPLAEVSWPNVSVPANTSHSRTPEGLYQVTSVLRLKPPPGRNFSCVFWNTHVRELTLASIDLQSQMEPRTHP

T3: human B7-H3 protein (Acrobiosystem), hB7-H3 hFc (human, UniProt Q5ZPR3-2 29-245, limits assumed)
T3 construct: Bought; not shown: human Fc
T3 sequence (looked up): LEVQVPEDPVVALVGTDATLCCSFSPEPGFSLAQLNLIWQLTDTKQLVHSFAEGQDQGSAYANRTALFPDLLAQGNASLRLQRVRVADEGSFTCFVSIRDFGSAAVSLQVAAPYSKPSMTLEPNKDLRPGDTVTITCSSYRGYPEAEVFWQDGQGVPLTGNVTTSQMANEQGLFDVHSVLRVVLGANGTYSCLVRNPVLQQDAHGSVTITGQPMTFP

T4: human CD86 protein (Acrobiosystem), hCD86 hFc (human, UniProt P42081 26-247, limits assumed)
T4 construct: Bought; also called B7-2; not shown: human Fc
T4 sequence (looked up): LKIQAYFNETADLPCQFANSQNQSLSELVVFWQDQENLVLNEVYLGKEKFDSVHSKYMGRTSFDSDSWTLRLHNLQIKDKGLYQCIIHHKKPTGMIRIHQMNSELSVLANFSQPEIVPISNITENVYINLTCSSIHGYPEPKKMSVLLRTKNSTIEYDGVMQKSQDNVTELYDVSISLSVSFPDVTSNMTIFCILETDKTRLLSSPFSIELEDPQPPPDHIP

B1: F016-870 (antibody, V domains shown)
VH: EVQLQESGPSLVKPSQTLSLTCSVTGDSITSGYWNWIRKFPGNKLEYMGYISYTGSTYQNPSLKSRISFTRDTSKNQYYLQLSSVTTEDTATYYCARSRAWIRTYFDYWGQGTTLTVSS
VL: EIVLTQSPALMAASPGEKVTITCSVSSSISSSNLHWYQQKSETSPKPWIYGTSNLASGVPVRFSGSGSGTSYSLTISSMEAEDAATYYCQQWSSYPLTFGAGTKLELKR
notes: Mouse hybridoma monoclonal antibody; also called anti-human PD-L1 antibody F016-870
B2: F016-568 (antibody, V domains shown)
VH: QLQESGPSLVKPSQTLSLTCSVTGDSITSDYWNWIRKFPGNKLEYMGYISYTGSTYYNPSLKSRISITRDTSKNQYYLQLNSVTTEDTATYYCAKQGGWLNAMDYWGQGTSVTVSS
VL: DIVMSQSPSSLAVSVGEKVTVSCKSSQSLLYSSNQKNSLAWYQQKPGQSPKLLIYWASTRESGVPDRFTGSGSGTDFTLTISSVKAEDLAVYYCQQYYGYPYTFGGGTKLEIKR
notes: Mouse hybridoma monoclonal antibody; also called anti-human PD-L1 antibody F016-568
B3: F016-21 (antibody, V domains shown)
VH: EVQLQQSGPELVKPGASVKMSCKASGYTFTDYVMHWVKQKPGQGLEWIGYINPYNDGTKFNEKFKGKATLTSDKSSSTAYMELSSLTSEDSAVYYCAKQTLDYWGQGTSVTVSS
VL: DIVLTQSPASLAVSLGQRATISCRASESVEYFGTTLMQWYQQRPGQPPKLLIYAASNVESGVPARFSGSGSGTDFSLNIHPVEEDDIAMYFCQQSRKVPYTFGGGTKLEIKR
notes: Mouse hybridoma monoclonal antibody purified from clone supernatant; also called anti-human PD-L1 antibody F016-21
B4: F016-193 (antibody, V domains shown)
VH: B3 VH with D31S, Y54H, T58N, F60Y, T78S, L101M
VL: B3 VL with I21L, Y31F, F32Y, Y40F, R43K
notes: Mouse hybridoma monoclonal antibody; also called anti-human PD-L1 antibody F016-193

biological target: T5, recombinant human PD-L1 protein carrying a hFc label (human, UniProt Q9NZQ7 19-238); experiment: flow cytometry blocking assay (method 2): antibody titrated; binding of recombinant human PD-L1-hFc to PD-1 on CHO-hPD-1 cells is blocked
T5 construct: Self-produced; also called hPD-L1 hFc; PD-L1-hFc; not shown: human Fc label
Procedure: The 1×FCM buffer was used to dilute the self-produced recombinant human PD-L1 protein carrying hFc, until the concentration reached 2 μg/mL. The 1×FCM buffer was used to resuspend the CHO-hPD-1 cells to the cell density of 2×10E6/mL, and the cells were evenly spread in the 96-well V base plate in 100 μL/well. […] After 250×g was taken to perform centrifugation for 5 min, supernatant was discarded in a sucking manner; after washing was performed once with the 1×FCM buffer, APC-labeled goat anti-mouse Fc fluorescent secondary antibodies (Biolegend) diluted by the 1×FCM buffer (dilution ratio being 1:500) were added in 100 μL/well; and incubation was performed on ice for 30 min. After 250×g was taken to perform centrifugation for 5 min, supernatant was discarded in a sucking manner. After washing was performed for 2 times with the 1×FCM buffer, the cells were resuspended by adding the 1×PBS in 100 μL/well; and the flow cytometer (Beckman, CytoFLEX) was used for detection.

T5 sequence (Q9NZQ7 19-238): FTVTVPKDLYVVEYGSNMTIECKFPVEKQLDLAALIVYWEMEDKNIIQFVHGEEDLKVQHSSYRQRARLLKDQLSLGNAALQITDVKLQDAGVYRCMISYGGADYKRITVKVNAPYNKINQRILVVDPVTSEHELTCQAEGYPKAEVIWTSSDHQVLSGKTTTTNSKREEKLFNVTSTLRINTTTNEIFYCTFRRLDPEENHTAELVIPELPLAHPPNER

IC50 [nM]	Binder
1.61	B1
1.69	B2
1.18	B3
0.993	B4

biological target: T1, human ICOSLG protein (Acrobiosystem), …; experiment: ELISA on coated hICOSLG hFc
Procedure: (§1) Supernatant was discarded; a blocking solution (1×PBS+1% BSA) was added in 200 μL/well; and blocking was performed for 1 h at 37° C. […] Washing was performed for 3 times with the 1×PBS. HRP-labeled goat anti-mouse IgG (sigma A0168-1ML) was added in 100 μL/well; incubation was performed for 30 min at 37° C. in a standing manner; and after washing was performed for 3 times with the 1×PBS, a color reaction was performed.

binding result	Binder
no binding (tested: 10 µg/mL)	B1
no binding (tested: 10 µg/mL)	B2
no binding (tested: 10 µg/mL)	B3

biological target: macaque PD-L1 on CHO-cynoPD-L1 stable cells (macaque, UniProt Q9NZQ7 19-290 (human entry)); experiment: flow cytometry, antibody titration on CHO-cynoPD-L1 cells, MFI-APC
Sequence (Q9NZQ7 other isoform, or with tags, fused parts or gaps limits assumed): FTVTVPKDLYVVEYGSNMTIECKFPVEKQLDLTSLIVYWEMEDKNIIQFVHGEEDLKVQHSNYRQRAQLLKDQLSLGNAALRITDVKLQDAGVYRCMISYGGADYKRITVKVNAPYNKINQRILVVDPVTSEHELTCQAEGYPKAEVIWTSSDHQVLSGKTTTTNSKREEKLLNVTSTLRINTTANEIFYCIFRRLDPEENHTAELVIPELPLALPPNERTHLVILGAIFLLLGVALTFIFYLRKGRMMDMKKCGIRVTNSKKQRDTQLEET

EC50 [nM]	Binder
0.949	B1
1.29	B2
0.947	B3

biological target: T2, human PD-L2 protein (Acrobiosystem), …; experiment: ELISA on coated hFc fusion protein
Procedure: as §1

binding result	Binder
no binding (tested: 10 µg/mL)	B4

biological target: T1, human ICOSLG protein (Acrobiosystem), …; experiment: ELISA on coated hFc fusion protein
Procedure: as §1

binding result	Binder
no binding (tested: 10 µg/mL)	B4

biological target: T6, human CD28 protein (Acrobiosystem), hCD28 hFc (human, UniProt P10747 19-152); experiment: ELISA on coated hCD28 hFc
T6 construct: Bought; not shown: human Fc
Procedure: as §1

binding result	Binder
no binding (tested: 10 µg/mL)	B1
no binding (tested: 10 µg/mL)	B2
no binding (tested: 10 µg/mL)	B3
no binding (tested: 10 µg/mL)	B4

biological target: T7, human CTLA-4 protein (Acrobiosystem), hCTLA-4 hFc (human, UniProt P16410 37-162, limits assumed); experiment: ELISA on coated hCTLA-4 hFc
T7 construct: Bought; not shown: human Fc
Procedure: as §1

T7 sequence (P16410 37-162 limits assumed): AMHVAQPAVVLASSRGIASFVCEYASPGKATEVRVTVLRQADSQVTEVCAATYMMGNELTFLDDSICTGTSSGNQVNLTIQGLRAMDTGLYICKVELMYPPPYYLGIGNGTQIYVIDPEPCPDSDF

binding result	Binder
no binding (tested: 10 µg/mL)	B1
no binding (tested: 10 µg/mL)	B2
no binding (tested: 10 µg/mL)	B3
no binding (tested: 10 µg/mL)	B4

biological target: T3, human B7-H3 protein (Acrobiosystem), …; experiment: ELISA on coated hB7-H3 hFc
Procedure: as §1

binding result	Binder
no binding (tested: 10 µg/mL)	B1
no binding (tested: 10 µg/mL)	B2
no binding (tested: 10 µg/mL)	B3
no binding (tested: 10 µg/mL)	B4

biological target: T4, human CD86 protein (Acrobiosystem), …; experiment: ELISA on coated hCD86 hFc
Procedure: as §1

binding result	Binder
no binding (tested: 10 µg/mL)	B1
no binding (tested: 10 µg/mL)	B2
no binding (tested: 10 µg/mL)	B3
no binding (tested: 10 µg/mL)	B4

biological target: T8, human PD-L1 full-length protein on CHO-hPD-L1 stable cells (human, UniProt Q9NZQ7 19-290); experiment: flow cytometry, antibody titration on CHO-hPD-L1 cells, MFI-APC
T8 construct: also called membrane protein PD-L1
T8 sequence (Q9NZQ7 19-290 limits assumed): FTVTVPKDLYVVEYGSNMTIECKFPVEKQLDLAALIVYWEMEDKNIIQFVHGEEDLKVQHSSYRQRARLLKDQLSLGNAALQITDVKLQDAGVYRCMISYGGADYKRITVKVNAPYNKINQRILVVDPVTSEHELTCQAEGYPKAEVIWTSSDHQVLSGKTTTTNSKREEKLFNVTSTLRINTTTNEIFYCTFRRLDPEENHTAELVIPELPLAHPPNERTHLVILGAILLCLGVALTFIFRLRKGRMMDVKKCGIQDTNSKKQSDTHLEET

EC50 [nM]	Binder
1.1	B1
1.25	B2
0.502	B3
0.561	B4

biological target: T9, human PD-L1 on IFNγ-stimulated A375 cells (human, UniProt Q9NZQ7 19-290); experiment: flow cytometry, antibody titration on human IFNγ-stimulated A375 cells, MFI-APC
T9 construct: whole, on cells; PD-L1 of the A375 cells themselves; also called PD-L1 membrane protein
Procedure: An experimental process included the following.
50 ng/mL of the human IFNγ (R&D) was used to stimulate the expression of human PD-L1 on human melanoma cells A375 (Shanghai cell bank) overnight; on the next day, 0.25% pancreatin (Gibco) was used to digest the A375 cells; after washing was performed once with DPBS, live cell density was adjusted to 2E6/mL; and the mixture was added into the 96-well V base plate in 100 μL/well. […] The mixture was added into the cells in 100 μL/well; and incubation was performed on ice for 30 min in a standing manner, then 250×g was taken to perform centrifugation for 5 min, and supernatant was discarded in a sucking manner. After washing was performed for 2 times with the 1×FCM buffer, iFluor™633GAM fluorescent secondary antibodies (ATT bioquest) diluted by the 1×FCM buffer (dilution ratio being 1:400) were added in 100 μL/well; and incubation was performed on ice for 30 min. After 250×g was taken to perform centrifugation for 5 min, supernatant was discarded in a sucking manner. After washing was performed for 2 times with the 1×FCM buffer, the cells were resuspended by adding the 1×PBS in 100 μL/well; and the flow cytometer (Beckman, CytoFLEX) was used for detection.

T9 sequence (Q9NZQ7 19-290): as the sequence (Q9NZQ7 19-290 limits assumed) above

EC50 [nM]	Binder
0.175	B2
0.151	B3
0.128	B4

biological target: T8, human PD-L1 full-length protein on …; experiment: flow cytometry blocking assay: antibody titrated on CHO-hPD-L1 cells; blocked ligand recombinant human CD80-hFc

IC50 [nM]	Binder
4.91	B1
4.11	B3
4.47	B4

biological target: T10, human PD-L1 extracellular domain recombinant protein hPD-L1-his (human, UniProt Q9NZQ7 19-238); experiment: BLI (ForteBIO QKe), hPD-L1-his captured on an anti-Penta-HIS sensor, antibody in solution
T10 construct: extracellular domain; Home-made; also called human PD-L1 recombinant protein; not shown: his label
Procedure: An experimental method included the following.
An equilibration buffer (1×PBS+0.02% Tween20) was used to dilute a home-made human PD-L1 extracellular domain recombinant protein hPD-L1-his carrying a his label, until a final concentration reached 5 μg/mL. […] The whole reaction was undergone at 25° C. and 1000 rpm.

T10 sequence (Q9NZQ7 19-238): as the sequence (Q9NZQ7 19-238) above

Kd [nM]	Binder
0.0742	B1
0.101	B2
0.0566	B3
0.0098	B4

biological target: T2, human PD-L2 protein (Acrobiosystem), …; experiment: ELISA on coated hPD-L2 hFc
Procedure: as §1

binding result	Binder
no binding (tested: 10 µg/mL)	B1
no binding (tested: 10 µg/mL)	B2
no binding (tested: 10 µg/mL)	B3

biological target: T8, human PD-L1 full-length protein on …; experiment: flow cytometry blocking assay (method 1): antibody titrated on CHO-hPD-L1 cells; blocked ligand recombinant human PD-1-hFc
Procedure: […] The 1×FCM buffer was used to resuspend the CHO-hPD-L1 cells to the cell density of 2×10E6/mL, and the cells were evenly spread in the 96-well V base plate in 100 μL/well. […] After 250×g was taken to perform centrifugation for 5 min, supernatant was discarded in a sucking manner. After washing was performed for 2 times with the 1×FCM buffer, the cells were resuspended by adding the 1×PBS in 100 μL/well; and the flow cytometer (Beckman, CytoFLEX) was used for detection.

IC50 [nM]	Binder
5.22	B1
6.9	B2
5.2	B3
4.98	B4
